According to patent US20250388664A1 (BIOARCTIC, published 2025):
Substitutions are numbered along the chain they refer to. Numbers in names are those of the source. Like-named read-outs stand apart in the source and are kept apart here.

B1: H2L7 (antibody, human IgG1, kappa, V domains shown)
VH: EVQLVQSGAEVKKPGASVRLSCKASGYSFTGFTMNWVRQALGQGLEWMGLINPYNGVTTYNQKFKGRLTMTRDMSTRTVYMDLSSLRYEDTAVYYCTREGNWEGVYWGQGTLVTVSS
VL: EIVLTQSPLSLSVTLGQSASISCRSSQSLLDSNGKTYLHWFILRPGQSPRRLIYLVSILDSGVPDRFSGSGSGTDFTLKISRVEAEDVGVYYCVQGTHFPFTFGSGTKLEIKR
notes: Humanized IgG1/kappa, expressed in CHO cells; also called humanized Pyr12.2 variant H2L7; VH2/VL7
B2: H2L7-K12V/R71A (antibody, human IgG1, kappa)
heavy: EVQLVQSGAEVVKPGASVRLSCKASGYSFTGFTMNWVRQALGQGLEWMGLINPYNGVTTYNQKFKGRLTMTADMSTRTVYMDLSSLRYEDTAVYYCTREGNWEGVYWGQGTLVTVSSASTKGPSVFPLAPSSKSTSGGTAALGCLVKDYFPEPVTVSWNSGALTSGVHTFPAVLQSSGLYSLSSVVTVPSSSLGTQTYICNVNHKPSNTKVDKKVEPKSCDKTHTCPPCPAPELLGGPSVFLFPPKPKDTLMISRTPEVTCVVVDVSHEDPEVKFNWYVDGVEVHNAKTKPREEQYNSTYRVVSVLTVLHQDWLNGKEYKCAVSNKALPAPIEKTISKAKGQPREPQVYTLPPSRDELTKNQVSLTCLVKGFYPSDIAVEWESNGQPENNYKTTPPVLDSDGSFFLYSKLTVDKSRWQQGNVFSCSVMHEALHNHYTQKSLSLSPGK
light: EIVLTQSPLSLSVTLGQSASISCRSSQSLLDSNGKTYLHWFILRPGQSPRRLIYLVSILDSGVPDRFSGSGSGTDFTLKISRVEAEDVGVYYCVQGTHFPFTFGSGTKLEIKRTVAAPSVFIFPPSDEQLKSGTASVVCLLNNFYPREAKVQWKVDNALQSGNSQESVTEQDSKDSTYSLSSTLTLSKADYEKHKVYACEVTHQGLSSPVTKSFNRGEC
notes: VH variant of H2L7; VL and constant domains identical to H2L7
B3: H9L8 (antibody, human IgG1, kappa, V domains shown)
VH: QVQLVQSGPEVKKPGSSVKVSCKASGYSFTGFTMNWVRQTPGKGLEWIGLINPYNGVTTYNQKFKGRVTITADESTRTAYMELLSLTYEDTAVYYCTREGNWEGVYWGQGTPVTVSA
VL: B1 VL with I2V, L11I, V63I, S105G
notes: Humanized IgG1/kappa, expressed in CHO cells; also called humanized Pyr12.2 variant H9L8; VH9/VL8

Experiments:
AβpE3-42 protofibrils [1] = target: T1, AβpE3-42 protofibrils (UniProt P05067 674-713, pyroglutamate at position 3 (N-terminal residue)); assay: SPR, protofibrils immobilised, antibody injected, 1:1 fit, apparent; Table 10; apparent KD on AβpE3-42 protofibrils
T1 construct: range 3-42 (Aβ numbering); Soluble aggregates made from AβpE3-42 peptide, purified in the void peak of SEC; also called AβpE3-42 PF
T1 sequence (P05067 674-713): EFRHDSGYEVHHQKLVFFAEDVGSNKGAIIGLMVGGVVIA
Procedure: (§1) Single cycle kinetics was also used to measure binding of the antibodies to AβpE3-42 protofibrils. […] Regeneration of the surface between cycles was done by injecting 30 μl 10 mM glycine-HCl pH 1.7. The binding data was fitted to a 1:1 interaction model.
(§2) In all SPR experiments, 1×HBS-EP+ (Cytiva, cat. no. BR100669) was used to dilute antibodies and target antigens. Experiments were performed at 25° C.

AβpE3-40 monomer [2] = target: T2, AβpE3-40 monomer (UniProt P05067 674-711, pyroglutamate at position 3 (N-terminal residue)); assay: inhibition ELISA, antigen titrated in solution, AβpE3-40 coat
T2 construct: range 3-40 (Aβ numbering); Synthetic peptide (Bachem/Anaspec), verified monomeric by SEC; also called monomeric AβpE3-40
T2 sequence (P05067 674-711): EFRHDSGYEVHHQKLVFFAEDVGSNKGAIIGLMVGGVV
Procedure: (§3) The humanized antibodies were incubated at a fixed concentration (0.1 μg/ml) with titrating concentrations of the different Aβ antigens. After incubation for 45 min at 900 rpm to reach equilibrium, the antibody-Aβ samples were added to a blocked and washed ELISA plate with an AβpE3-40 coat (0.5 μM). The samples were incubated on the plate for 25 min without shaking followed by washing, incubation with detection antibody, another washing step and finally incubation with alkaline phosphatase substrate.

Aβ1-42 protofibrils [3] = target: T3, Aβ1-42 protofibrils (UniProt P05067 672-713); assay: as above
T3 construct: range 1-42 (Aβ numbering); Soluble aggregates made from Aβ1-42 monomer
T3 sequence (P05067 672-713): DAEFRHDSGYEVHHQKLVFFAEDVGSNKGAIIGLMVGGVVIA
Procedure: as §3

Aβ1-40 monomer [4] = target: T4, Aβ1-40 monomer (UniProt P05067 672-711); assay: as above
T4 construct: range 1-40 (Aβ numbering)
T4 sequence (P05067 672-711): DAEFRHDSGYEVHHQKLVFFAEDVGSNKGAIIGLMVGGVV
Procedure: as §3

AβpE3-42 protofibrils [5] = target: T1, AβpE3-42 protofibrils; assay: as above
Procedure: as §3

AβpE3-40 monomer [6] = target: T2, AβpE3-40 monomer; assay: SPR, antibody immobilised, monomer injected, 1:1 fit
Procedure: (§4) Single cycle kinetics with the antibodies immobilized on a CM5 chip was used to measure the binding of the antibodies to the AβpE3-40 monomer. For the measurements, 5 μg/ml of analyte antibody was immobilized on the chip. […] Regeneration of the surface between cycles was done by injecting 30 μl 3 M MgCl₂. The binding data was fitted to a 1:1 interaction model.
as §2

AβpE3-42 protofibrils [7] = target: T1, AβpE3-42 protofibrils; assay: SPR, protofibrils immobilised, antibody injected, 1:1 fit, apparent
Procedure: as §1, §2

AβpE3-40 monomer [8] = target: T2, AβpE3-40 monomer; assay: inhibition ELISA, antigen titrated in solution, AβpE3-40 coat; remark: listed apart in the source
Aβ1-42 protofibrils [9] = target: T3, Aβ1-42 protofibrils; assay: as above; remark: listed apart in the source
Aβ1-40 monomer [10] = target: T4, Aβ1-40 monomer; assay: as above; remark: listed apart in the source
AβpE3-42 protofibrils [11] = target: T1, AβpE3-42 protofibrils; assay: as above; remark: listed apart in the source
AβpE3-28 monomer [12] = target: T5, AβpE3-28 monomer (UniProt P05067 674-699, pyroglutamate at position 3 (N-terminal residue)); assay: as above
T5 construct: range 3-28 (Aβ numbering)
T5 sequence (P05067 674-699): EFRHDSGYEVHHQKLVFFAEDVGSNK
Procedure: as §3, with “(0.5” for “(0.1”

Aβ3-28 monomer [13] = target: T6, Aβ3-28 monomer (UniProt P05067 674-699); assay: as above
T6 construct: range 3-28 (Aβ numbering)
Procedure: as §3, with “(0.5” for “(0.1”

AβpE3-42 protofibrils [14] = target: T1, AβpE3-42 protofibrils; assay: SPR, protofibrils immobilised, antibody injected, 1:1 fit, apparent; remark: listed apart in the source
Procedure: as §1, §2
(§5) Affinity evaluation and KD determination by surface plasmon resonance: Binding interactions between antigens and antibodies were evaluated by SPR using a Biacore 8K instrument (Cytiva) according to standard procedures.

AβpE3-28 monomer [15] = target: T5, AβpE3-28 monomer; assay: inhibition ELISA, antigen titrated in solution, AβpE3-40 coat; remark: listed apart in the source
Procedure: as §3, with “(0.5” for “(0.1”

Aβ3-28 monomer [16] = target: T6, Aβ3-28 monomer; assay: as above; remark: listed apart in the source
Procedure: as §3, with “(0.5” for “(0.1”

Aβ5-28 monomer = target: T7, Aβ5-28 monomer (UniProt P05067 676-699); assay: as above
T7 construct: range 5-28 (Aβ numbering)
T7 sequence (P05067 676-699): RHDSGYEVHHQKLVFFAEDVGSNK
Procedure: as §3, with “(0.5” for “(0.1”

Aβ1-28 monomer [17] = target: T8, Aβ1-28 monomer (UniProt P05067 672-699); assay: as above
T8 construct: range 1-28 (Aβ numbering)
T8 sequence (P05067 672-699): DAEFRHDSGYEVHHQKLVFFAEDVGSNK
Procedure: as §3, with “(0.5” for “(0.1”

AβpE11-28 monomer = target: T9, AβpE11-28 monomer (UniProt P05067 682-699, pyroglutamate at position 11 (N-terminal residue)); assay: as above
T9 construct: range 11-28 (Aβ numbering)
T9 peptide (looked up): EVHHQKLVFFAEDVGSNK
Procedure: as §3, with “(0.5” for “(0.1”

Aβ2-28 monomer = target: T10, Aβ2-28 monomer (UniProt P05067 673-699); assay: as above
T10 construct: range 2-28 (Aβ numbering)
T10 sequence (P05067 673-699): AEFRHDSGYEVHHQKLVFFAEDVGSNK
Procedure: as §3, with “(0.5” for “(0.1”

Aβ4-28 monomer = target: T11, Aβ4-28 monomer (UniProt P05067 675-699); assay: as above
T11 construct: range 4-28 (Aβ numbering)
T11 sequence (P05067 675-699): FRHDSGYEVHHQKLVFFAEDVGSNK
Procedure: as §3, with “(0.5” for “(0.1”

AβpE3-40 monomer [18] = target: T2, AβpE3-40 monomer; assay: SPR, antibody immobilised, monomer injected, 1:1 fit; remark: listed apart in the source
Procedure: as §4, §2, §5

AβpE3-42 protofibrils [19] = target: T1, AβpE3-42 protofibrils; assay: SPR, protofibrils immobilised, antibody injected, 1:1 fit, apparent; binding to AβpE3-42 protofibrils; KD in pM
Procedure: as §1, §2, §5

Aβ1-28 monomer [20] = target: T8, Aβ1-28 monomer; assay: inhibition ELISA, antigen titrated in solution, AβpE3-40 coat; remark: listed apart in the source
Procedure: as §3, with “(0.5” for “(0.1”

AβpE3-42 protofibrils [21] = target: T1, AβpE3-42 protofibrils; assay: SPR, protofibrils immobilised, antibody injected, 1:1 fit, apparent; apparent KD on AβpE3-42 protofibrils
Procedure: as §1, §2

Binder | IC50 (AβpE3-40 monomer [2]) | IC50 (Aβ1-42 protofibrils [3]) | IC50 (Aβ1-40 monomer [4]) | IC50 (AβpE3-42 protofibrils [5]) | Kd (AβpE3-40 monomer [6]) | koff (AβpE3-40 monomer [6]) | kon (AβpE3-40 monomer [6]) | koff (AβpE3-42 protofibrils [7]) | kon (AβpE3-42 protofibrils [7]) | IC50 (AβpE3-40 monomer [8]) | IC50 (Aβ1-42 protofibrils [9]) | IC50 (Aβ1-40 monomer [10]) | IC50 (AβpE3-42 protofibrils [11]) | IC50 (AβpE3-28 monomer [12]) | IC50 (Aβ3-28 monomer [13]) | koff (AβpE3-42 protofibrils [14]) | kon (AβpE3-42 protofibrils [14]) | IC50 (AβpE3-28 monomer [15]) | IC50 (Aβ3-28 monomer [16]) | IC50 (Aβ5-28 monomer) | further results
B1 | 2.6 nM | > 500 nM | > 12500 nM | 2.5 nM | 2.54 nM | 0.000125 s⁻¹ | 50500 M⁻¹ s⁻¹ | 1.79e-05 s⁻¹ | 107000 M⁻¹ s⁻¹ | 2.35 nM | > 132 nM | > 500 nM | 3 nM | 3.6 nM | 2350 nM | 1.79e-05 s⁻¹ | 107000 M⁻¹ s⁻¹ | 5.5 nM | 1870 nM | > 12500 nM | Kd (AβpE3-42 protofibrils [1]): 0.173 nM; IC50 (Aβ1-28 monomer [17]): > 12500 nM; IC50 (AβpE11-28 monomer): > 12500 nM; IC50 (Aβ2-28 monomer): > 12500 nM; IC50 (Aβ4-28 monomer): > 12500 nM; Kd (AβpE3-40 monomer [18]): 2.54 nM; koff (AβpE3-40 monomer [18]): 0.000125 s⁻¹; kon (AβpE3-40 monomer [18]): 50500 M⁻¹ s⁻¹
B2 |  |  |  |  |  |  |  |  |  | 1.69 nM | > 132 nM | > 500 nM | 3.58 nM | 3 nM | 2820 nM | 2.92e-05 s⁻¹ | 61200 M⁻¹ s⁻¹ |  |  |  | Kd (AβpE3-42 protofibrils [19]): 0.477 nM; IC50 (Aβ1-28 monomer [20]): 10200 nM; Kd (AβpE3-40 monomer [18]): 4.14 nM; koff (AβpE3-40 monomer [18]): 0.000233 s⁻¹; kon (AβpE3-40 monomer [18]): 59000 M⁻¹ s⁻¹
B3 | 2.1 nM | > 500 nM | > 12500 nM | 4.9 nM | 2.7 nM | 0.000139 s⁻¹ | 53700 M⁻¹ s⁻¹ | 2.05e-05 s⁻¹ | 44300 M⁻¹ s⁻¹ |  |  |  |  |  |  |  |  | 3.5 nM | 1790 nM | > 12500 nM | Kd (AβpE3-42 protofibrils [21]): 0.464 nM; IC50 (Aβ1-28 monomer [17]): > 12500 nM; IC50 (AβpE11-28 monomer): > 12500 nM; IC50 (Aβ2-28 monomer): > 12500 nM; IC50 (Aβ4-28 monomer): > 12500 nM
